Results taken from patent US20050013867A1, “Use of proton sequestering agents in drug formulations” (priority 2001, published 2005).
Where two headings read alike, the source gives them in different places.

How the values were obtained:
[1] = aqueous solution, general indicator of proton affinity, cited from earlier work
[2] = Degradation rate of parathyroid hormone in solution ± disodium citrate, by high pressure liquid chromatography; format: physicochemical; conditions: 1 mg/mL parathyroid hormone ± disodium citrate, pH 3, 40° C.
Procedure: Determine the degradation rates of parathyroid hormone (1 mg/mL; 0.24 mM)±disodium citrate at pH 3 at 40° C. In separate aliquots, incubate with the following amounts of disodium citrate ([…]; 57.3 μg/mL, 0.24 mM; and 5.73 μg/mL, 0.024 mM). Include a control aliquot containing parathyroid hormone lacking disodium citrate. High pressure liquid chromatography is used to measure the degradation of parathyroid hormone at various time points.

## parathyroid hormone
[1]
  pKa of C-terminal carboxylate: ≈ 3.5
  pKa of carboxylate sidechains of aspartic and glutamic acid: ≈ 4.8
[1]; listed as PTH
  pKa of C-terminal carboxylate: 3.5
  pKa of carboxylate sidechains of aspartic and glutamic acid: 4.8
[2]
  retention of activity (degradation by HPLC): retains more activity in the citrate solution
